Assay results taken from patent US20230355534A1, “METHOD TO ENCAPSULATE AN AQUEOUS SOLUTION COMPRISING A COMPOUND OF INTEREST IN A MATRIX” (SECOYA TECHNOLOGIES, priority 2020, published 2023).

Experiments:
[1] = Encapsulation efficiency by spectrophotometry of the second aqueous solution after separation of the particles; type: physicochemical; conditions: Example 1 particles (Eudragit S100 matrix, oleic acid shell); typical detection limit 2 w %
Protocol: The encapsulation efficiency has been measured through spectrophotometry measurement by means of a Thermoscientific Genesys 180 device. The encapsulation efficiency is measured by measuring the percentage of compound of interest in the second aqueous solution after separation of the obtained particles. The percentage is a weight percentage, i.e. the mass of compound in relation to the total mass of the second aqueous solution. Given the high mass of second aqueous solution in relation to the mass of the compound of interest, only significant amounts of compound of interest are detected. A typical detection limit is 2 w %. If no compound of interest is detected in the second aqueous solution after separation of the obtained particles, it means that no to very low quantities of compound of interest are present in the second aqueous solution, and that the encapsulation can be considered to have been efficient. Detection of the compound of interest indicates less efficient encapsulation. The larger the amount of compound of interest detected, the less efficient was the encapsulation.
For the measurement of the encapsulation efficiency, the protein pork haemoglobin was used as compound of interest for encapsulation.

[2] = Encapsulation yield by spectrophotometry after dissolution of the particles; type: physicochemical; conditions: Example 1 particles; percentage of compound initially used that is detected in the particles; upper limit of detection 98%
Protocol: A second evaluation method measures the encapsulation yield. The encapsulation yield is measured directly on the particles, and represents the percentage of the compound of interest initially used in the encapsulation method that is detected in the particles. The measurement is performed by spectrophotometry by means of a Thermoscientific Genesys 180 device after dissolution of the particles. Based on the detection limits of the device, the upper limit of encapsulation yield is noticed to be 98%, meaning that approximately 2% is not detected. This also means that an encapsulation yield of 98% indicates a very good encapsulation of the compound of interest.
For the measurement of the encapsulation yield, the protein pork haemoglobin was used as compound of interest for encapsulation. The encapsulation yield for pork haemoglobin was up to 98%, indicating a very high encapsulation yield.

For pork haemoglobin, the “encapsulation efficiency: compound of interest detected in the second aqueous solution after separation of the obtained particles” value [1] was “No traces” and the encapsulation yield [2] was “up to 98%”.
